The target in test [1] is T1, recombinant mouse LRP6 extracellular domain (mouse, UniProt O88572 20-1370).
T1 construct: extracellular domain; also called mouse LRP6 ectodomain
T1 sequence (looked up): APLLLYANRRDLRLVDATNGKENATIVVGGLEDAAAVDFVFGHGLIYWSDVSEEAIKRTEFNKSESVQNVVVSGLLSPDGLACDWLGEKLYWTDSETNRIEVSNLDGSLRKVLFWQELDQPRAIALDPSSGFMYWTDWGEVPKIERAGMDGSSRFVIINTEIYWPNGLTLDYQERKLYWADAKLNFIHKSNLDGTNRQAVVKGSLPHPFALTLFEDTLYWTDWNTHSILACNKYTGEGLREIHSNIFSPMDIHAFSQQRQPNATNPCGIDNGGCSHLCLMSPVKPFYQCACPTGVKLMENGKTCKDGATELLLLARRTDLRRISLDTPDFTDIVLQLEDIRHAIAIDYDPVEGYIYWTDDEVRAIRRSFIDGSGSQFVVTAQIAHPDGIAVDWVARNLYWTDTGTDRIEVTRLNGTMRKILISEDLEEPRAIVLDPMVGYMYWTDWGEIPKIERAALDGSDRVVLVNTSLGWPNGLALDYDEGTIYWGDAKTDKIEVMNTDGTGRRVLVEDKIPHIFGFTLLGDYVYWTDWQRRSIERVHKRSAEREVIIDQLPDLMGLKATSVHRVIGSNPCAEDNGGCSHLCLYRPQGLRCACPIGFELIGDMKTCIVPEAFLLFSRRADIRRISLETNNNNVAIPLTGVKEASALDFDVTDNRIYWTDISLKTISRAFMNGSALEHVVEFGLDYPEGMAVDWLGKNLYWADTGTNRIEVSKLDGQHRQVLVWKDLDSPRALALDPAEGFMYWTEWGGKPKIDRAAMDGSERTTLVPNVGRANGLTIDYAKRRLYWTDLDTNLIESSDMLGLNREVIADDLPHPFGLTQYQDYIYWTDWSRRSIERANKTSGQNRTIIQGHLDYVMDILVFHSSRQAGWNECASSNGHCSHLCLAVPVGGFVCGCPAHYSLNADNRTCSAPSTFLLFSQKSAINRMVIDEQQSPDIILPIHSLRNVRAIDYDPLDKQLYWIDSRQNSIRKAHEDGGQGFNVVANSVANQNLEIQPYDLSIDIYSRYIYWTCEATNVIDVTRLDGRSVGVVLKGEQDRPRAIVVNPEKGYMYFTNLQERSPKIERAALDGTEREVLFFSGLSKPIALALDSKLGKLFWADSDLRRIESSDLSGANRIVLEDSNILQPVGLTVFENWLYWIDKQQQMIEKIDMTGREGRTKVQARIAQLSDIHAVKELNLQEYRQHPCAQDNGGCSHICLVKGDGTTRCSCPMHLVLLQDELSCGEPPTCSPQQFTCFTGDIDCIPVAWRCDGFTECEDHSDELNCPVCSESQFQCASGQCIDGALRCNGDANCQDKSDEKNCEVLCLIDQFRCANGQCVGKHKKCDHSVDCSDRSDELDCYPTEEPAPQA
Put plainly: ELISA on recombinant mouse LRP6 extracellular domain.

Test [2] has as its target T2, human LRP6 (low density lipoprotein receptor-related protein 6), full length on HEK293 cells (human, UniProt O75581 20-1613). Put plainly: cell-based or functional assay.
Test [3] addresses T2, human LRP6 (low density lipoprotein …). Nature of the test: flow cytometry titration of 66 IgG on HEK293 cells. As to the method: (§1) HEK293 cells were transfected with LRP6 expression plasmid and incubated with 66 or E34N19 scFv-phage for 1 hour. E34N19 was identified previously as a Wnt antagonist binding to the P3E3P4E4 domain (Lee et al., 2018). The E34N19 IgG was simultaneously added as a competitor. Bound phages were detected by sequential incubation of mouse anti-fd IgG and PE-labeled anti-mouse IgG. FIG. 7A is a graph showing the dissociation curve of the 66 antibody. HEK293 cells were incubated with varying concentrations of 66 IgG, and the binding was analyzed by flow cytometry. […] As a positive control, the E34N19E IgG competes with the E34N19E scFv-phage.
(§2) The apparent KD of antibodies was analyzed by FACS as described (Lee et al., 2018). Briefly, cells were trypsinized, washed, and resuspended in FACS buffer (PBS, 1% FBS). Antibodies serially diluted in FACS buffer were incubated with target cells (3×10⁵ cells/tube) overnight at 4° C. Cells were washed, incubated with Alexa Fluor® 647-labeled goat anti-human IgG (Jackson ImmunoResearch). 1 hour post incubation, cells were washed in PBS and analyzed using a BD Accuri C6 flow cytometer (BD Biosciences). Median Fluorescence Intensity (MFI) values were analyzed by curve fitting (GraphPad) to determine the affinity.

The target is the same in test [4]. Put plainly: flow cytometry on HEK293 cells; apparent KD by curve fitting of MFI. The protocol:
as §1, §2
In general terms: In flow cytometry, cells or beads pass a laser one at a time.

Test [5] deals with T3, LRP6 double mutant (K662A/K684A) on HEK293 cells (human, UniProt O75581 20-1613).
T3 construct: whole, on cells; Made by site-directed mutagenesis of the LRP6 construct in pCMV-Entry and transfected into HEK293 cells
Put plainly: flow cytometry on transfected HEK293 cells. As to the method:
FIG. 1F is a graph showing fine epitope mapping by alanine scanning of LRP6 and the effect of the alanine substitutions on binding of the 66 antibody. LRP6 single mutants and the double mutant (K662A/K684A) were separately transfected into HEK293 cells. An anti-LRP6 scFv-Fc fusion that binds to the LRP6-P1 domain was used as a control to confirm cell surface expression of LRP6. Binding of the 66 antibody was determined by flow cytometry, and median fluorescence intensity (MFI) values were normalized against MFI of the P1-binding scFv-Fc.
To map the binding site further, the binding of the 66 antibody to LRP6 was modeled using a homology modeling-predicted structure for the 66 Fv and two known crystal structures of LRP6 (3S8Z and 4A0P: FIGS. 8A and 8B, respectively). Several potential 66 contact sites were identified on LRP6. Alanine scan mutagenesis was performed at those sites. Alanine mutants of LRP6 ectodomain were constructed using QuikChange Site-Directed Mutagenesis Kit (Agilent Technologies) according to the manufacturer's protocol. Binding of the 66 IgG to these LRP6 mutants was analyzed by flow cytometry. K662A and K684A single mutations caused a significant loss of 66 binding (FIG. 1F).

B1: 66 IgG (Wnt-agonist human monoclonal antibody 66) (antibody, V domains shown)
VH: QVQLLQSGGGLVQPGGSLRLSCAASGFTFSTYAMSWVRQAPGKGLEWVSTIGPSGSSTYYAYADSVKGRFTISRDNYKNMLYLQMNSLRAEDTAVYYCAKEGPNSGYFDFDYWGQGTLVTVSS
VL: EIVLTQSPSSLSASVGDRVTITCRASQSISTYLNWYQQKPGKAPKVLIYAASSLQSGVPSRISGSGSGTDFTLTISSLQPEDFATYYCQQSYSIPLTFGGGTKLEIK
notes: also called 66 antibody; agonist 66 IgG
Broadly, the EC50 (read off the curve) is the concentration at which the effect is half-maximal. Read a low EC50 (read off the curve) as a more potent agent. On to B1, for which the binding result in test [1] is “binds”. In addition, in test [2], the “EC50, STF reporter on HEK293 cells without Wnt ligands” value stood at 13.4 nM; the “EC50, Wnt1-mediated beta-catenin signaling (STF reporter) with RSPO2 (5 nM)” value worked out at 1.8 nM; the “EC50, Wnt3a-mediated beta-catenin signaling (STF reporter) with RSPO2 (5 nM)” value came to 4.8 nM. Further, in test [3], the “EC50 (read off the curve)” value is approximately 5 nM. For the same molecule, in test [4], the Kd was approximately 5 nM. The binding result in test [5] was “no binding”.
